This note sets out measurements from patent US11306331B2, “Processes for the production of hydroxycinnamic acids using polypeptides having tyrosine ammonia lyase activity” (CysBio ApS, priority 2014, dated 2022).

Series [1] concerns E. coli BL21(DE3)pLysS cells. The series can be described thus: Titers of hydroxycinnamic acids in supernatants of E. coli cultures expressing TAL homologs. The format is cell-based, Escherichia coli. The following applies: 16 hours, 37° C., duplicate. The method, then:
E. coli strains described in Example 1 were used. M9 medium with 0.2% glucose and 0.5 mM IPTG also containing either tyrosine (204 μM), L-dopa (194 μM) or 3-O-methyldopa (262 μM) was transferred as 3-mL aliquots into a 24-well deep-well plate (Enzyscreen). Aliquots were taken for HPLC before the wells were inoculated with 200 μL of overnight cultures of the strains. The plates were placed at 37° C. with shaking for 16 hours. Samples of the supernatant were withdrawn after two rounds of centrifugation. The samples were subjected to HPLC along with chemical standards as described in Example 1. p-coumaric acid, caffeic acid and ferulic acid was measured by absorbance at 333 nm. Tyrosine, L-dopa and 3-O-methyldopa were measured by fluorescence (excitation at 274 nm, emission at 303 nm).
There was no measurable product in the medium before inoculation.

For series [2], the system named is L. lactis NZ9000ΔldhΔldhB. Nature of the series: Specific pHCA and CA productivity of L. lactis strains expressing TAL/PAL enzymes in CDM. The format is cell-based, Lactococcus lactis. The text has this:
The synthetic RsXALI (protein GI 129592) and RmXALI (protein GI 126464011) genes, codon optimized for Lactococcus lactis (GeneArt), were cloned into the nisin inducible expression vector pNZ8048 (Kuipers et al., 1998) as follows: RsXALI (SEQ ID NO: 56) and RmXALI (SEQ ID NO: 57) genes and the vector were PCR amplified using the primers listed in Table 7, and were assembled in a single-tube isothermal reaction using the Gibson Assembly Master Mix (New England Biolabs). Reaction products were ethanol-precipitated and suspended in double distilled water before transformation into L. lactis by electroporation as described by Holo and Nes (1995). The synthetic genes encoding SeSam8, R_XAL, HaXAL1 and FjXAL described in a previous example above were amplified by PCR using the primer pairs listed in Table 1, digested with specific restriction enzymes, and cloned in-between the NcoI and XbaI restriction sites of pNZ8048. The plasmids were obtained and maintained in L. lactis NZ9000 (Kuipers et al., 1998) and the gene sequences of the different constructs were verified by sequencing.
To assess pHCA production, TAL-expression vectors were transformed into a strain derived from NZ9000, but with deletion of the genes Idh and dhB (NZ9000ΔldhΔldhB). A control strain was also constructed by transformation of NZ9000ΔldhΔldhB with empty expression vector pNZ8048.
For molecular biology procedures, L. lactis strains were cultivated as batch cultures (flasks) without aeration in M17 medium (Difco™, USA) supplemented with 0.5% glucose (w/v) at 30° C. To assess pHCA production, strains were grown as static cultures in chemically defined medium (CDM; Poolman and Konings, 1988) containing 1% glucose (wt/vol) without pH control (initial pH 6.5 or 7.0) and supplemented with 1.7 or 3.7 mM L-tyrosine. Plasmid selection was achieved by addition of 5 μg mL^−1 chloramphenicol to the growth medium. Growth was monitored by measuring OD600. For heterologous expression of cloned tyrosine ammonia lyases, L. lactis strains were grown in CDM and nisin (1.5 μg L^−1) was added at an OD600 of 0.3-0.4. Samples (1 mL) of cultures were collected at different points during growth; centrifuged (16,100×g, 10 min, 4° C.) and the supernatants stored at −20° C. until analysis by HPLC as described in a previous example above. […] The first six columns are results from media containing 1.7 mM tyrosine. The seventh and ninth columns represent samples from strains grown in media containing 3.7 mM tyrosine, and the eighth and ninth columns are data from media with 68.5 mM 3-(N-morpholino)propanesulfonic acid (MOPS) and initial pH adjusted to 7.0 rather than 6.5.

B1: Flavobacterium johnsoniae FjXAL tyrosine ammonia lyase (Protein GI 146298870), SEQ ID NO: 1, His-tagged (N-terminal tag SEQ ID NO: 11) (Flavobacterium … (protein)
chain: MNTINEYLSLEEFEAIIFGNQKVTISDVVVNRVNESFNFLKEFSGNKVIYGVNTGFGPMAQYRIKESDQIQLQYNLIRSHSSGTGKPLSPVCAKAAILARLNTLSLGNSGVHPSVINLMSELINKDITPLIFEHGGVGASGDLVQLSHLALVLIGEGEVFYKGERRPTPEVFEIEGLKPIQVEIREGLALINGTSVMTGIGVVNVYHAKKLLDWSLKSSCAINELVQAYDDHFSAELNQTKRHKGQQEIALKMRQNLSDSTLIRKREDHLYSGENTEEIFKEKVQEYYSLRCVPQILGPVLETINNVASILEDEFNSANDNPIIDVKNQHVYHGGNFHGDYISLEMDKLKIVITKLTMLAERQLNYLLNSKINELLPPFVNLGTLGFNFGMQGVQFTATSTTAESQMLSNPMYVHSIPNNNDNQDIVSMGTNSAVITSKVIENAFEVLAIEMITIVQAIDYLGQKDKISSVSKKWYDEIRNIIPTFKEDQVMYPFVQKVKDHLINN
Regarding B1, the “Titer of ferulic acid” value in series [1] (M9 + 3-O-methyldopa (262 μM)) is 1.1 ± 0.3 µM. The “Titer of caffeic acid” value in series [1] (M9 + L-dopa (194 μM)) came to 5.7 ± 1.0 µM. In series [1] (M9 + tyrosine (204 μM)), the “Titer of p-coumaric acid” value came out at 215 ± 11.1 µM. Also, in series [2] (CDM, 1.7 mM tyrosine), the “increase in specific production of pHCA over RmXALI, the second-best enzyme” value is “five-fold increase”. Also, in series [2] (CDM, 1.7 mM tyrosine, initial pH 6.5), the “Specific production of pHCA” value was found to be 15 μM OD600^−1. For the same molecule, in series [2] (tyrosine increased from 1.7 mM to 3.7 mM and/or pH increased from 6.5 to 7.0), the “specific productivity of pHCA” value came out at 24 μMD600^−1.
